“And” between values parts separate entries of the source, which are not always exact repeats. Equal values may be shown once. “Also recorded” adds a separate entry of the source.
What was measured:
[1] = test system: spermatozoa; settings: inhibitors of PLA2; Roldan and Fragio 1993; Llanos et al 1993; cited from earlier work
[2] = test system: sperm and oocytes; assay: In vitro fertilization (IVF), two-cell embryos scored at 24 h; type: cell-based, mouse; settings: for comparison with mGX sPLA2 effect (FIG. 7): around 10 μM, 45 min during capacitation or 4 h after gamete mixing
[3] = test system: Sperm cells from caudae epididymes; assay: Acrosome reaction assay (coomassie blue staining); type: cell-based, mouse; settings: for AR induced above basal spontaneous level of AR / ability to trigger acrosome reaction (AR): uncapacitated sperm; for ability to trigger acrosome reaction (AR): incubated 10 min with sPLA2 (200 nM in FIG. 2A; pro-mGX at 200 nM)
Procedure: Sperm cells from caudae epididymes were allowed to swim in M2 medium for 10 min. Then, sperms were incubated, if necessary, with different sPLA2 in M16 medium at 37° C. for 10 min. Cells were transferred in PBS solution and then fixed with 4% PFA solution for 2 min. Sperm was washed with 100 mM ammonium acetate for 2 min and wet-mounted on slides and allowed to air dry. Slides were then rinsed with water and stained with coomassie blue (0.22%) for 2 min and finally rinsed with water. Slides were counted immediately and 150 sperm cells were scored at least.
The rate of AR increase from 20%, corresponding to spontaneous acrosome-reacted sperm, to 60% in the presence of 200 nM active sPLA2. In order to better characterize the potency of such compounds to trigger AR, dose-response curves for mGX and mGIIA were realized (FIG. 2B).
Sperm were capacitated with 2% BSA in M16 medium, in a 5% CO2 incubator at 37° C. At 45 and 80 min, 200 nM of mGX was introduced in the capacitation medium and sperm were fixed 10 min later. The rates of acrosome-reacted sperm observed in the presence of sPLA2 were compared with control sperm capacitated during 55 or 90 min in the capacitation medium (FIG. 2C). […] Moreover, the difference between spontaneous AR and total rate, corresponding to the sPLA2-induced fraction, was around stable throughout the capacitation progress: ≈39%, ≈36% and ≈35% at 10, 55 and 90 min respectively. It is important to notice that a small fraction of sperm of around 20% was reluctant to spontaneous AR or sPLA2-induced AR even in the presence of a high level of spontaneous AR.

[4] = test system: Sperm cells; assay: Electron microscopy of sPLA2-induced acrosome reaction; type: cell-based, mouse; settings: uncapacitated sperm
Procedure: Sperm cells were fixed with 2.5% glutaraldehyde in 0.1 M cacodylate buffer pH 7.4 during 2 hours at room temperature. Cells were then washed with buffer and post fixed with 1% Osmium tetroxyde in the same buffer during 1 hour at 4° C. After extensive washing with water cells were then stained with 0.5% uranile acetate pH 4 overnight at 4° C. Cells were then dehydrated through graded alcohol (30%-60%-90%-100%-100%-100%) and infiltrate with a mix of 1/1 epon/alcohol 100% during 1 hour before several bath of fresh epon (Flukka) during 3 hours. Finally, cells were centrifugated and immersed in fresh Epon and polymerised during 3 days at 60° C. Ultrathin sections of the cell pellet were cut with an ultramicrotome (Leica). Sections were post-stained with 4% uranile acetate and 1% lead citrate before being observed in an electron microscope at 80 kV (JEOL 1200EX).
It was important to check with electron microscopy (EM) that sPLA2 induced a morphologically normal acrosome reaction. The morphological criteria by which an acrosome reaction is evaluated to be normal are relatively limited: first, the outer acrosomal membrane should present vesiculation, second, the plasma membrane should fuse with the outer acrosomal membrane and present a characteristic double hair pin shape at the base of the acrosome (Green, D. P. (1978) The induction of the acrosome reaction in guinea-pig sperm by the divalent metal cation ionophore A23187. J. Cell Sci., 32:137-51.:137-151.)
For these experiments, uncapacitated sperm was used in order to reduce the contribution of spontaneous AR and 200 nM sPLA2 to get maximum sPLA2-induced AR. Sperm were incubated 10 min with mGX sPLA2 or the calcium ionophore A23187 and then fixed. In the presence of A23187, all acrosome-reacted sperm presented complete AR, with the 3 morphological criteria, as described above.

[5] = test system: sperm and oocytes; assay: In vitro fertilization (IVF), two-cell embryos scored at 24 h; type: cell-based, mouse; settings: for rate of IVF (effect in words): OF1 sperm treated 10 min with 20 or 200 nM mGX
Procedure: Sperm cells, obtained by manual trituration of caudae epididymes from OF1 male mice, were allowed to swim in M2 medium for 10 min. Then, the sperm cells were transferred in M16 medium containing 2% BSA (Bovine Serum Albumen) and incubated 35 min for capacitation. After centrifugation, cells were then transferred in M16 medium and if necessary, incubated with 20 or 200 nM of mGX sPLA2 for 10 min. Sperm cells were centrifugated (1200 rpm, 5 min) and re-suspended in M16 medium to remove […] sPLA2 before to be used for in vitro fertilization experiment. All experiments were carried out at 37° C. Eggs were collected from mature OF1 females (6-weeks old) synchronized with 7.5 units of PMSG (pregnant mare serum gonadotrophin) and 7.5 units of hCG (human chorionic gonadotrophin) before collection.
IVF using standard protocols were carried out. Eggs were incubated with approximately 10^4 sperm cells, and unbound sperms were washed away after 4 hours of incubation. Twenty four hours after fertilization, the two-cell embryos stages (FIG. 4) were scored as an indication of successful fertilization (FIGS. 5 and 6).
In vitro fertilizations (IVF) were realized with sperm capacitated 35 min in 2% BSA and then treated 10 min with 20 or 200 nM mGX. Before treated sperm were introduced within oocytes, sperm were washed and centrifuged to remove sPLA2 in order to avoid artefact effects of sPLA2 on sperm-oocyte fusion (Riffo and Parraga, 1997). sPLA2 contaminant in the IVF medium was below 1 nM for sperm treated at 200 nM.

Molecule: O=C(CBr)c1ccc(Br)cc1 [4-bromophenacyl bromide]
- effect on calcium-ionophore induced acrosome reaction [1]: block

Molecule: Lysophosphocholine [LPC]
- rescue of fertilization decreased by LY329722 ([2]; LPC 1 μM during capacitation with LY329722 2 μM (FIG. 8)): rescued
- comparison with mGX sPLA2 effect (FIG. 7) [2]: mimic mGX sPLA2

Molecule: CCCCC/C=C\C/C=C\C/C=C\C/C=C\CCCC(=O)O [arachidonic acid]
- comparison with mGX sPLA2 effect (FIG. 7) [2]: mimic mGX sPLA2

Molecule: CCN(CC)CCCC(C)Nc1c2ccc(Cl)cc2nc2ccc(OC)cc12 (centres unmarked) [mepacrine]
- effect on calcium-ionophore induced acrosome reaction [1]: block

B1: mGX: Recombinant mouse group X secreted phospholipase A2 (protein, UniProt Q9QXX3 29-151, looked up)
Group 10 secretory …: GLLELAGTLDCVGPRSPMAYMNYGCYCGLGGHGEPRDAIDWCCYHHDCCYSRAQDAGCSPKLDRYPWKCMDHHILCGPAENKCQELLCRCDEELAYCLAGTEYHLKYLFFPSILCEKDSPKCN
- ability of mGX to trigger AR with 2 mM Ni2+ ([3]; 200 nM mGX, 2 mM Ni2+ in the bath, n=3): block
- sPLA2-induced fraction (difference between total rate and spontaneous AR) ([3]; 200 nM mGX, 10 min (non-capacitated sperm)): ≈ 39%
- ability of mGX to trigger AR without external calcium ([3]; 200 nM mGX, 10 min, external calcium removed, n=3): block
- sPLA2-induced fraction (difference between total rate and spontaneous AR) ([3]; 200 nM mGX, 55 min of capacitation in 2% BSA): ≈ 36%
- sPLA2-induced fraction (difference between total rate and spontaneous AR) ([3]; 200 nM mGX, 90 min of capacitation in 2% BSA): ≈ 35%
- very low dose from which AR is triggered ([3]; capacitated and uncapacitated sperm, in the absence of oocytes): 0.2 nM
- total rate of acrosome-reacted sperm versus control ([3]; capacitated sperm (2% BSA, 55 or 90 min), 200 nM mGX for the last 10 min): able to trigger acrosome reaction; also recorded: increased at all capacitation durations
- AR induced above basal spontaneous level of AR ([3]; 0.2 nM sPLA2): 15%
- AR induced above basal spontaneous level of AR ([3]; 0.2 nM sPLA2, listed as mGX sPLA2): around 20%
- ability to trigger acrosome reaction (AR) [3]: trigger acrosome reaction; also recorded: able to trigger AR
- kinetic of induced AR compared with A23187 ([4]; 200 nM, 10 min): slower
- morphology of induced acrosome reaction (electron microscopy) ([4]; incubated 10 min (200 nM sPLA2)): normal morphological feature
- increase of fertilization rate versus non-treated sperm ([2]; C57Bl/6 strain, mGX treated sperm (200 nM)): 142%
- control IVF with sPLA2 present during sperm-oocyte incubation ([2]; sperm and oocytes incubated with 1 nM mGX): no difference was noticed
- rate of two-cells embryos stage at 24 hours ([2]; sperm from C57Bl/6 males treated with 200 nM mGX, control 8.2%): 19.9%
- rate of IVF (effect in words) [5]: promotes fertilization
- rate of IVF (effect in words) ([5]; listed as mGX sPLA2): increased
- fertilization outcome (2 cell embryo at 24 h post fertilization) ([5]; sPLA2 at 200 nM (FIG. 7)): improve fertilization outcome
- rate of two cells embryos stage at 24 hours (IVF rate) ([5]; sperm from OF1 males treated 10 min with 200 nM mGX, control 45% (44.0±8.9%)): 65% and 65.4 ± 5.6%

B2: pro-mGX: the inactive pro-enzyme (precursor molecule) of mGX (protein, UniProt Q9QXX3 18-151, looked up)
pro-form: EATRRSHVYKRGLLELAGTLDCVGPRSPMAYMNYGCYCGLGGHGEPRDAIDWCCYHHDCCYSRAQDAGCSPKLDRYPWKCMDHHILCGPAENKCQELLCRCDEELAYCLAGTEYHLKYLFFPSILCEKDSPKCN
modifications: pro-form
- ability to trigger acrosome reaction (AR) [3]: unable to trigger AR
- ability to trigger acrosome reaction (AR) ([3]; listed as Pro-mGX): unable to trigger sperm acrosome reaction

B3: mGV: Recombinant mouse group V secreted phospholipase A2 (protein, UniProt P97391 21-137, looked up)
Phospholipase A2 group V: GLLELKSMIEKVTGKNAFKNYGFYGCYCGWGGRGTPKDGTDWCCQMHDRCYGQLEEKDCAIRTQSYDYRYTNGLVICEHDSFCPMRLCACDRKLVYCLRRNLWTYNPLYQYYPNFLC
- ability to trigger acrosome reaction (AR) [3]: trigger acrosome reaction

B4: mGIIA: Recombinant mouse group IIA secreted phospholipase A2 (protein, UniProt P31482 22-146, looked up)
Phospholipase A2, membrane …: NIAQFGEMIRLKTGKRAELSYAFYGCHCGLGGKGSPKDATDRCCVTHDCCYKSLEKSGCGTKLLKYKYSHQGGQITCSANQNSCQKRLCQCDKAAAECFARNKKTYSLKYQFYPNMFCKGKKPKC
- AR induced above basal spontaneous level of AR ([3]; 2 nM sPLA2): around 20%
- ability to trigger acrosome reaction (AR) [3]: trigger acrosome reaction; also recorded: able to trigger AR

Source: US8758746B2, “Fertilization modulation compounds and process for implementing them” (Universite Joseph Fourier, priority 2009, dated 2014)
